{
  "source": "patent US20180335433A1",
  "about": "“COMPOSITIONS TARGETING PKC-THETA AND USES AND METHODS OF TREATING PKC-THETA PATHOLOGIES, ADVERSE IMMUNE RESPONSES AND DISEASES” (La Jolla Institute for Allergy and Immunology, priority 2011, published 2018)",
  "molecules": {"B1": {"name": "V3 domain: amino acid 282-379 of human PKCθ with N-terminal Myc tag, expressed from pMIG retroviral vector (protein)", "chain": "GINQKLMAEALAMIESTQQARCLRDTEQIFREGPVEIGLPCSIKNEARPPCLPTPGKREPQGISWESPLDEVDKMCHLPEPELNKERPSLQIKLKIED", "modifications": "left off: small tags and cut ends", "notes": "amino acid 282-379 of human PKCθ with N-terminal Myc tag, expressed from pMIG retroviral vector"}},
  "key": {"[1]": {"tested_on": "CD28 response element (RE/AP) reporter gene", "assay": "RE/AP luciferase reporter assay in MCC-specific T hybridoma cells", "assay_type": "cell-based", "method": "(§1) (FIG. 6A) OT-II CD4^+ T cells were infected with retrovirus expressing Myc-tagged V3 domain, V3 mutated at P330/1/4/6A (V3-4PA), or PR motif-deleted V3 (V3-ΔPR). Infected cells (green) were harvested, stimulated, and fixed. Conjugates were stained with anti-Myc plus a secondary Alexa 555-coupled antibody (orange), and anti-PKCθ plus a secondary Alexa 647-coupled antibody (red). Cells were analyzed as in FIG. 1A. (FIG. 6B) Quantitative analysis of the results shown in (FIG. 6A) from 30-50 T-APC conjugates. ** p<0.05. (FIG. 6C) MCC-specific T hybridoma cells were cotransfected with indicated vector, together with RE/AP-Luc and β-Gal reporter plasmids. Cells were stimulated and analyzed as in FIG. 1C. […] Cytokine-producing cells were analyzed by intracellular staining 8 h after restimulation. […] Normalized luciferase activity was determined in triplicates.\nThe CD28 response element (RE/AP)- or NFAT-luciferase (Luc) reporter genes have been described (Coudronniere, N. et al. Proc Natl Acad Sci USA 97, 3394-3399 (2000)). […] The cells were the lysed and Luc activity was quantitated and normalized to the activity of a cotransfected β-galactosidase (β-Gal) reporter gene.\nTo determine whether ectopic V3 expression also interfered with PKCθ-dependent TCR/CD28 signaling, the effects of V3 on activation of reporter genes and on T cell differentiation into effector Th cells were analyzed. […]"}, "CD28": {"biological_target": "T1, CD28 (Mus musculus, UniProt P31041)", "T1 construct": "PKCθ^−/− primary CD4^+ T cells were infected with a retrovirus expressing a Myc-tagged V3 alone; endogenous in cells; host or cells: primary CD4+ T cells of PKCθ-/- mice, retrovirally transduced only with Myc-tagged V3", "T1 sequence (P31041 20-218)": "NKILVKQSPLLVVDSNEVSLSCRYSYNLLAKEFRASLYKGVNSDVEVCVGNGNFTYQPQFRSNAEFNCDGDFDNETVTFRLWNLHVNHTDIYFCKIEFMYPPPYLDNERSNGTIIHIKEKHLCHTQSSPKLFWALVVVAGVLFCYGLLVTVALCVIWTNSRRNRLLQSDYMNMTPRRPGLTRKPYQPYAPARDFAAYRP", "T1 sequence (P06240 2-509 partner)": "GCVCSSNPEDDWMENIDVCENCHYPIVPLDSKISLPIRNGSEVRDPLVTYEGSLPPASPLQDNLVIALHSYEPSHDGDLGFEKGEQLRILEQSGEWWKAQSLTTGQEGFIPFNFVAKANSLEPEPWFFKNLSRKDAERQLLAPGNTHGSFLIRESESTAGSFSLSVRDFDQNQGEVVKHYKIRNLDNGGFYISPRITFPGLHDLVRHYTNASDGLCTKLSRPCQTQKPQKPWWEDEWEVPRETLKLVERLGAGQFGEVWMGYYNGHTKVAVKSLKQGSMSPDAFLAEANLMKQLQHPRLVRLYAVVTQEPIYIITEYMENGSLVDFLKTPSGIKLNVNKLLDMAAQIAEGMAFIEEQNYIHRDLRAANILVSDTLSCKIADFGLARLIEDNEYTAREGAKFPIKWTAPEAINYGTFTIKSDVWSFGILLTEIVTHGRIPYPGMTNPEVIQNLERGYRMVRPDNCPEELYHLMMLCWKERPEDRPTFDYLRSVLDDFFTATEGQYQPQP", "assay": "Co-immunoprecipitation of Myc-tagged V3 with CD28 in PKCθ−/− primary CD4+ T cells", "assay_type": "binding", "settings": "Myc-tagged V3 alone, retrovirus, CD3+CD28 mAbs 5 min", "method": "(FIG. 2A) Schematic representation of PKCθ mutants. (FIG. 2B) Jurkat E6.1 cells transfected with the indicated PKCθ or PKCδ vectors were stimulated with anti-CD3/CD28 mAbs for 5 min. (FIG. 2C-2E) PKC CD4^+ T cells were infected with retrovirus expressing empty pMIG vector, WT PKCθ, or PKCθ−ΔV3 (FIG. 2C); WT PKCθ, PKCθ/δV3, or WT PKCδ (FIG. 2D); empty pMIG-vector or Myc-tagged V3 of PKCθ (FIG. 2E). Cells were harvested and restimulated with CD3+CD28 mAbs for 5 min. Cell lysates were prepared, immunoprecipitated with anti-CD28 mAb, resolved by SDS-PAGE, and immunoblotted with the indicated Abs. (FIG. 2F) Jurkat T cells cotransfected with Myc-tagged PKCθ−V3 plus CFP-tagged CD28 were mixed with SEE-pulsed Raji B cells at a 1:1 ratio. Conjugates were fixed and stained with a rabbit anti-Myc Ab plus a secondary Alexa 488-coupled antibody. Data shown is from four studies.\nRetrovirally transduced CD4^+ T cells were stimulated with anti-CD3 and anti-CD28 mAbs for 5 min. Cell lysis in 1% digitonin lysis buffer, immunoprecipitation and Western blotting were carried out as described (Yokosuka, T. et al. Immunity 29, 589-601 (2008)).\nTo determine whether the V3 domain is sufficient for this interaction, PKCθ^−/− primary CD4^+ T cells were infected with a retrovirus expressing a Myc-tagged V3 alone. […]"}, "[2]": {"tested_on": "B6 CD4+ T cells, Th2 differentiation", "assay": "In vitro Th2 differentiation of retrovirally transduced CD4+ T cells", "assay_type": "cell-based, mouse", "settings": "ectopic expression, Th2 differentiation conditions", "method": "as §1, with “triplicates. […]” for “triplicates.”\nInvestigators have reported that the Th2 and Th17 immune responses are compromised in PKCθ^−/− mice, whereas the Th1 response remains relatively intact (Marsland, B. J. et al. J Exp Med 200, 181-189 (2004); Salek-Ardakani, S. et al. J Immunol 173, 6440-6447 (2004); Salek-Ardakani, S., et al. J Immunol 175, 7635-7641 (2005)). Therefore, ectopic expression of V3 was analyzed for inhibition of Th differentiation. […]"}},
  "data": [
    {"molecule": "B1", "values": [
      {"measurement": "inhibition of RE/AP reporter gene activity stimulated by WT PKCθ", "setting": "[1]; coexpressed at increasing levels together with WT PKCθ", "value": "inhibited in a dose-dependent manner"},
      {"measurement": "activation of RE/AP reporter gene", "setting": "[1]; expression of the V3 alone", "value": "did not activate"},
      {"measurement": "coimmunoprecipitation with CD28", "setting": "CD28", "value": "coimmunoprecipitated with CD28"},
      {"measurement": "inhibition of Th2 differentiation", "setting": "[2]", "value": "~75", "unit": "%"}
    ]}
  ]
}
